Patent publication US7303876B2 (Applera Corporation, priority 2000, dated 2007)

What was measured:
[1] = tested on: BoDipy-labeled Casein Conjugate; assay: Proteinase K digestion of BoDipy-labeled Casein Conjugate (fluorescence); assay type: biochemical; conditions: one hour, 60° C.
Text: An assay was developed to measure the activity of Proteinase K with BoDipy-labeled Casein Conjugate (Enz Check Protease Assay Kit, Product number E6638; Molecular Probes, Eugene, Oreg.). The concentration of fluorescent BoDipy moieties in this derivatized conjugate is sufficiently high so that when the protein is intact, the fluorescence of individual moieties is quenched. Upon digestion of the derivatized casein by a protease, however, peptides containing a lower number of BoDipy dye molecules are released, resulting in an increase in fluorescence. To determine an initial dynamic range for an assay, BoDipy-labeled Casein was digested for one hour with a decreasing concentration of Proteinase K as follows. […] Following a one hour incubation at 60° C. with mixing, 100 μL aliquots were transferred to a 96-well optical plate (MicroAmp® Optical 96-Well Reaction Plate, Applied Biosystems, Foster City, Calif.) and the fluorescence was measured in an ABI Prism 7700 spectrophotometer (Applied Biosystems). The background fluorescence was determined by incubating the substrate in buffer without Proteinase K.

slices of liver = assay: Maceration of liver slices by reaction compositions at 65° C.; conditions: 65° C.; for maceration of liver slice: 1 mg/ml Proteinase K, No Additives
Description: Initially, a series of reaction compositions were analyzed for their ability to disaggregate a biological sample, e.g., slices of liver. These reaction compositions comprised 100 mM Tris, pH 8.0, 20 mM dithiothreitol (DTT), and optionally,1 mg/ml Proteinase K, surfactants (e.g., cationic, nonionic and anionic detergents), chaotropes, or the additive 1-methyl-2-pyrollidinone (Sigma). Each reaction compositions was placed in a tube with a slice of liver and then incubated at 65° C. The tubes were observed periodically to determine which reaction compositions were able to efficiently macerate the sample.

Proteinase K = target: T1, Proteinase K (Parengyodontium album, UniProt P06873); assay: Effect of surfactants on Proteinase K digestion of dye-labeled casein substrate; assay type: biochemical; conditions: water, 0 minutes incubation, ambient temperature
T1 construct: purchased Ambion 2546
Description: To test the effect of cationic surfactants on the activity of Proteinase K, a series of reaction compositions were prepared as follows. Reaction compositions comprised: Casein BoDipy conjugate (1 μg, 10 ng/μL), 10 mM Tris, pH 8, 20 mM CaCl2, 1% surfactant (shown in Table 2 below) and a dilution series of Proteinase K at concentrations of 20 μg/ml, 5 μg/ml, 1.25 μg/ml, 0.31 μg/ml, 0.078 μg/ml, 0.02 μg/ml and 0.005 μg/ml. […] Reaction tubes were incubated at 60° C. in a 96-well optical plate (MicroAmp® Optical 96-Well Reaction Plate, Applied Biosystems) and the amount of released fluorescence was measured at the indicated time points using an ABI Prism 7700.

B1: Proteinase K: protease (subtilisin), Ambion (protein, UniProt P06873 106-384, looked up)
Proteinase K: AAQTNAPWGLARISSTSPGTSTYYYDESAGQGSCVYVIDTGIEASHPEFEGRAQMVKTYYYSSRDGNGHGTHCAGTVGSRTYGVAKKTQLFGVKVLDDNGSGQYSTIIAGMDFVASDKNNRNCPKGVVASLSLGGGYSSSVNSAAARLQSSGVMVAVAAGNNNADARNYSPASEPSVCTVGASDRYDRRSSFSNYGSVLDIFGPGTSILSTWIGGSTRSISGTSMATPHVAGLAAYLMTLGKTTAASACRYIADTANKGDLSNIPFGTVNLLAYNNYQA
[1]
  lowest Proteinase K concentration with released fluorescence detected: 50 ng/mL
[1]; 10 μg/ml BoDipy-labeled Casein Conjugate
  fluorescence signal plateau: around 30,000 fluorescence units
Slices of liver; 2-5 hr
  maceration of liver slice: 0%
Slices of liver; 16-24 hr
  maceration of liver slice: 75%
Slices of liver
  ability to macerate the liver sample (in words): effectively digest the liver tissue, but only after extended incubation
Proteinase K
  proteolytic activity of Proteinase K without surfactant: high proteolytic activity
